We go through 21 molecules from patent publication US20190315854A1 (BEIJING VDJBIO, published 2019).

As a reminder, the Kd is the concentration at which binding is half-saturated. A high value points to a looser complex. Broadly, the koff is the rate constant with which the complex falls apart. Read a high koff as fast dissociation. In general, kon refers to a measure of how fast the partners come together. Low readings indicate slower complex formation, high ones faster complex formation.

What all share (test): SPR (BIAcore 3000), antibody on chip, sIL-6R analyte, 25 C
Background: SPR reads the build-up and loss of mass on a sensor chip optically.

Assay [1] deals with T1, sIL-6R (soluble IL-6 receptor; SBH Sciences) (human, UniProt P08887 20-365).
T1 construct: also called human IL-6R
T1 sequence: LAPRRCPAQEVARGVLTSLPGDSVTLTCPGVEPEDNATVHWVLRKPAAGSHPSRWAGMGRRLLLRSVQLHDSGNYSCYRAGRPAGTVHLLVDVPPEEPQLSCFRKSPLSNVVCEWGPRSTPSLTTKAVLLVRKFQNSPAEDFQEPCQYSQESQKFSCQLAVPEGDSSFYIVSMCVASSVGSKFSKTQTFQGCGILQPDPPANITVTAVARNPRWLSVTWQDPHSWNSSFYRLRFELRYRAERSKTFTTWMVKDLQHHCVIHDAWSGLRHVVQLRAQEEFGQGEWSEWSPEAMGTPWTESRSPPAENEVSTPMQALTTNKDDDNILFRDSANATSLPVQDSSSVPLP
How it is done:
(§1) All SPR measurements were performed on a BIAcore 3000 instrument (GE Biosciences, Piscataway, N.J.). BIAcore Software-BIAcore 3000 Control Software V3.2 was used for the operation and control of the BIAcore 3000 instrument. BiaEvaluation Software V4.1 was used for the analysis of SPR data from the BIAcore 3000 instrument and data was plotted using Graph Pad Prism Software Version 5. […] The indicated antibodies were used as the ligand for the construction of the reference channel of the chip. […] Each sample was injected for 3 min at a flow rate of 30 μL/min to allow for binding to chip-bound antibody. Next, binding buffer without analyte was sent over the chip at the same flow rate to allow for dissociation of bound analyte. After 500s, remaining bound analyte was removed by injecting regeneration solution (1M Formic acid). Data was analyzed by using the Kinetics Wizard and the manual fitting programs that are both included with the BiaEvaluation Software V4.1.

In assay [2] the target is T1, sIL-6R (soluble IL-6 receptor; SBH …). How it is done: as §1
The source holds these as a separate data set.

For assay [3] the target is unchanged. How it is done: as §1
This is another data set of the same source.

Assay [4] shares this target. How it is done:
as §1
The source holds these as a separate data set.

Positions count from the first letter of the chain named. Where two headings read alike, the source gives them in different places.

B1: 17# (antibody, human IgG1, kappa, V domains shown)
VH: QVQLQESGPGLVRPSQTLSLTCTVSGYSITSDHAWSWVRQPPGRGLEWIGFISYSGITTYNPSLKSRVTMLRDTSKNQFSLRLSSVTAADTAVYYCARCLARTTAMDYWGQGSLVTVSS
VL: DIQMTQSPSSLSASVGDRVTITCRASQDISSYLNWYQQKPGKAPKLLIYYTSRLHSGVPSRFSGSGSGTDFTFTISSLQPEDIATYYCQQGNTLPYTFGQGTKVEIKR
notes: also called Sample # 17
Regarding B1, in assay [1], the Kd amounted to 0.304 nM, the “Relative Affinity” value was 4.4 fold vs 25 (Tocilizumab), the koff is 8.71e-05 s⁻¹ and the kon was found to be 287000 M⁻¹ s⁻¹. Further, in assay [2], binding was put at a Kd of 0.354 nM, the “Relative Affinity” value was 4.8 fold vs 25 (Tocilizumab), the koff was determined as 0.000117 s⁻¹ and the kon was 331000 M⁻¹ s⁻¹.

B2: 68# (antibody, human IgG1, kappa, V domains shown)
VH: B1 VH with I57M, T103I, M106I, W109F
VL: B1 VL
notes: also called Sample # 68
For B2, in assay [3], the equilibrium dissociation constant (Kd) was 0.0296 nM, the “Relative Affinity” value was 96.3 fold vs 25 (Tocilizumab), the koff was 8.6e-06 s⁻¹ and the kon worked out at 291000 M⁻¹ s⁻¹.

B3: 247# (antibody, human IgG1, kappa, V domains shown)
VH: B1 VH with F51Y, I57M, T103M
VL: B1 VL with Q89G, T93R
notes: also called Sample # 247
On to B3, for which, in assay [4], the Kd is 0.212 nM, the “Relative Affinity” value is 13.2 fold vs 25 (Tocilizumab), the koff was determined as 3.54e-05 s⁻¹ and the kon amounted to 167000 M⁻¹ s⁻¹.

B4: 248# (antibody, human IgG1, kappa, V domains shown)
VH: B1 VH with F51Y, I57M, T58I, C99T, T103M, M106I, Y108F
VL: B1 VL with Q89G, T93R
notes: also called Sample # 248
With B4, in assay [4], the Kd came out at 0.189 nM, the “Relative Affinity” value was 14.8 fold vs 25 (Tocilizumab), the koff amounted to 1.73e-05 s⁻¹ and the kon was 91200 M⁻¹ s⁻¹.

B5: 49# (antibody, human IgG1, kappa, V domains shown)
VH: B1 VH with F51Y, P62A, C99S
VL: B1 VL
notes: also called Sample # 49
For B5, in assay [3], the Kd turned out to be 1.65 nM, the “Relative Affinity” value was 1.7 fold vs 25 (Tocilizumab), the koff was 0.000218 s⁻¹ and the kon turned out to be 132000 M⁻¹ s⁻¹.

B6: 62# (antibody, human IgG1, kappa, V domains shown)
VH: B1 VH with I57M, T103A
VL: B1 VL
notes: also called Sample # 62
Turning to B6, in assay [3], the Kd is 0.0258 nM, the “Relative Affinity” value was 110 fold vs 25 (Tocilizumab), the koff amounted to 6.61e-06 s⁻¹ and the kon was determined as 256000 M⁻¹ s⁻¹.

B7: 56# (antibody, human IgG1, kappa, V domains shown)
VH: B1 VH with I57M, T58I, C99S, T103I
VL: B1 VL
notes: also called Sample # 56
For the molecule B7, in assay [3], the Kd is 0.243 nM, the “Relative Affinity” value was 11.7 fold vs 25 (Tocilizumab), the off-rate constant (koff) turned out to be 5.59e-05 s⁻¹ and the kon amounted to 230000 M⁻¹ s⁻¹.

B8: 30# (antibody, human IgG1, kappa, V domains shown)
VH: B1 VH with I57M
VL: B1 VL
notes: also called Sample # 30
As for B8, in assay [1], the Kd came out at 0.235 nM, the “Relative Affinity” value was 5.7 fold vs 25 (Tocilizumab), the koff was 7.03e-05 s⁻¹ and the kon came to 299000 M⁻¹ s⁻¹. Also, in assay [2], the affinity, expressed as Kd, was 0.255 nM; the “Relative Affinity” value is 6.7 fold vs 25 (Tocilizumab); the koff came out at 8.33e-05 s⁻¹; the kon stood at 327000 M⁻¹ s⁻¹.

B9: 249# (antibody, human IgG1, kappa, V domains shown)
VH: B1 VH with F51Y, I57M, T103A
VL: B1 VL with Q89G, T93R
Take B9: in assay [4], the Kd amounted to 0.241 nM, the “Relative Affinity” value is 11.6 fold vs 25 (Tocilizumab), the koff was 3.39e-05 s⁻¹ and the kon worked out at 141000 M⁻¹ s⁻¹.

B10: 31# (antibody, human IgG1, kappa, V domains shown)
VH: B1 VH with I57M, C99S, T103I
VL: B1 VL
notes: also called Sample # 31
Regarding B10, in assay [1], the affinity, expressed as Kd, was 0.1 nM; the “Relative Affinity” value was 13.4 fold vs 25 (Tocilizumab); the koff was 2.92e-05 s⁻¹; the kon was found to be 292000 M⁻¹ s⁻¹. For the same molecule, in assay [2], binding was put at a Kd of 0.156 nM, the “Relative Affinity” value was 11 fold vs 25 (Tocilizumab), the koff turned out to be 5.99e-05 s⁻¹ and the kon turned out to be 385000 M⁻¹ s⁻¹.

B11: 60# (antibody, human IgG1, kappa, V domains shown)
VH: B1 VH with I57M, C99S, T103I
VL: B1 VL
notes: also called Sample # 60
B11: in assay [3], the Kd came to 0.205 nM, the “Relative Affinity” value was 13.9 fold vs 25 (Tocilizumab), the koff turned out to be 4.59e-05 s⁻¹ and the kon worked out at 224000 M⁻¹ s⁻¹.

B12: 66# (antibody, human IgG1, kappa, V domains shown)
VH: B1 VH with I57M, C99S, T103M
VL: B1 VL
notes: also called Sample # 66
Turning to B12, in assay [3], the Kd stood at 0.141 nM, the “Relative Affinity” value is 20.2 fold vs 25 (Tocilizumab), the koff stood at 3.38e-05 s⁻¹ and the kon turned out to be 239000 M⁻¹ s⁻¹.

B13: 28# (antibody, human IgG1, kappa, V domains shown)
VH: B1 VH with I57M, C99S
VL: B1 VL
notes: also called Sample # 28
Regarding B13, in assay [1], the affinity, expressed as Kd, was 0.268 nM; the “Relative Affinity” value is 5 fold vs 25 (Tocilizumab); the koff is 7.61e-05 s⁻¹; the kon came to 284000 M⁻¹ s⁻¹. For the same molecule, in assay [2], the dissociation constant Kd turned out to be 0.408 nM, the “Relative Affinity” value was 4.2 fold vs 25 (Tocilizumab), the koff came out at 0.000148 s⁻¹ and the kon is 363000 M⁻¹ s⁻¹.

B14: 201# (antibody, human IgG1, kappa, V domains shown)
VH: B1 VH with I57M, T103I, M106I, Y108F
VL: B1 VL
notes: also called Sample # 201
Turning to B14, in assay [3], the Kd was found to be 0.0674 nM, the “Relative Affinity” value is 42.3 fold vs 25 (Tocilizumab), the koff is 1.47e-05 s⁻¹ and the kon was determined as 218000 M⁻¹ s⁻¹.

B15: 208# (antibody, human IgG1, kappa, V domains shown)
VH: B1 VH with I57M, C99S, T103A
VL: B1 VL
notes: also called Sample # 208
For the molecule B15, in assay [3], binding was put at a Kd of 0.126 nM, the “Relative Affinity” value is 22.6 fold vs 25 (Tocilizumab), the koff came to 2.79e-05 s⁻¹ and the kon was found to be 221000 M⁻¹ s⁻¹.

B16: 51# (antibody, human IgG1, kappa, V domains shown)
VH: B1 VH with F51Y, T103M
VL: B1 VL
notes: also called Sample # 51
Consider B16, for which, in assay [3], binding was characterised by a dissociation constant (Kd) of 0.42 nM, the “Relative Affinity” value is 6.8 fold vs 25 (Tocilizumab), the koff worked out at 5.72e-05 s⁻¹ and the kon was 136000 M⁻¹ s⁻¹.

B17: 24# (antibody, human IgG1, kappa, V domains shown)
VH: B1 VH with F51Y, T103I
VL: B1 VL
notes: also called Sample # 24
For B17, in assay [1], the Kd was 0.281 nM, the “Relative Affinity” value is 4.8 fold vs 25 (Tocilizumab), the koff turned out to be 7.13e-05 s⁻¹ and the kon was determined as 254000 M⁻¹ s⁻¹. Besides, in assay [2], binding was put at a Kd of 0.317 nM, the “Relative Affinity” value was 5.4 fold vs 25 (Tocilizumab), the koff was 7.99e-05 s⁻¹ and the kon was found to be 252000 M⁻¹ s⁻¹.

B18: 27# (antibody, human IgG1, kappa, V domains shown)
VH: B1 VH with I57M, C99S, T103A
VL: B1 VL
notes: also called Sample # 27
B18: in assay [1], binding was put at a Kd of 0.102 nM, the “Relative Affinity” value is 13.1 fold vs 25 (Tocilizumab), the off-rate constant (koff) was 3.46e-05 s⁻¹ and the kon amounted to 339000 M⁻¹ s⁻¹. In assay [2], the affinity, expressed as Kd, was 0.126 nM; the “Relative Affinity” value was 13.6 fold vs 25 (Tocilizumab); the koff was found to be 4.27e-05 s⁻¹; the kon was 339000 M⁻¹ s⁻¹.

B19: 18# (antibody, human IgG1, kappa, V domains shown)
VH: B1 VH with T103I
VL: B1 VL
notes: also called Sample # 18
Regarding B19, in assay [1], the Kd worked out at 0.141 nM, the “Relative Affinity” value was 9.5 fold vs 25 (Tocilizumab), the koff was 4.73e-05 s⁻¹ and the kon worked out at 335000 M⁻¹ s⁻¹. For the same molecule, in assay [2], the Kd stood at 0.167 nM, the “Relative Affinity” value is 10.2 fold vs 25 (Tocilizumab), the koff worked out at 5.42e-05 s⁻¹ and the kon came to 325000 M⁻¹ s⁻¹.

B20: 64# (antibody, human IgG1, kappa, V domains shown)
VH: B1 VH with I57M, T103M
VL: B1 VL
notes: also called Sample # 64
For the molecule B20, in assay [3], the Kd was 0.133 nM, the “Relative Affinity” value is 21.4 fold vs 25 (Tocilizumab), the dissociation rate constant (koff) is 2.85e-05 s⁻¹ and the kon is 214000 M⁻¹ s⁻¹.

B21: 203# (antibody, human IgG1, kappa, V domains shown)
VH: B1 VH with F51Y, T103M
VL: B1 VL with Q89G, T93R
notes: also called Sample # 203
Take B21: in assay [3], the Kd stood at 0.334 nM, the “Relative Affinity” value is 8.5 fold vs 25 (Tocilizumab), the koff came to 3.17e-05 s⁻¹ and the kon amounted to 95000 M⁻¹ s⁻¹.
